{
  "source": "paper PMC8764033",
  "about": "“Single-molecule analysis of specificity and multivalency in binding of short linear substrate motifs to the APC/C” (Nature Communications, 2022)",
  "molecules": {"B1": {"name": "Hsl1^Halo KEN & D: Hsl1 fragment (amino acids 667–872) with C-terminal HaloTag, JF549-labeled (protein)", "chain": "QNSASKRSLYSLQSISKRSLNLNDLLVFDDPLPSKKPASENVNKSEPHSLESDSDFEILCDQILFGNALDRILEEEEDNEKERDTQRQRQNDTKSSADTFTISGVSTNKENEGPEYPTKIEKNQFNMSYKPSENMSGLSSFPIFEKENTLSSSYLEEQKPKRAALSDITNSFNKMNKQEGMRIEKKIQREQLQKKNDRPSPLKPIQ", "modifications": "JF549 or JF646 dye covalently bound to the HaloTag; left off: HaloTag, C-terminal, kept | TAP, C-terminal, cleaved", "notes": "Hsl1 fragment (amino acids 667–872) with C-terminal HaloTag, JF549-labeled"}},
  "key": {"APC/C^Apc10-4A, Cdh1": {"system": "APC/C^Apc10-4A, Cdh1", "sequence (P53197 whole entry)": "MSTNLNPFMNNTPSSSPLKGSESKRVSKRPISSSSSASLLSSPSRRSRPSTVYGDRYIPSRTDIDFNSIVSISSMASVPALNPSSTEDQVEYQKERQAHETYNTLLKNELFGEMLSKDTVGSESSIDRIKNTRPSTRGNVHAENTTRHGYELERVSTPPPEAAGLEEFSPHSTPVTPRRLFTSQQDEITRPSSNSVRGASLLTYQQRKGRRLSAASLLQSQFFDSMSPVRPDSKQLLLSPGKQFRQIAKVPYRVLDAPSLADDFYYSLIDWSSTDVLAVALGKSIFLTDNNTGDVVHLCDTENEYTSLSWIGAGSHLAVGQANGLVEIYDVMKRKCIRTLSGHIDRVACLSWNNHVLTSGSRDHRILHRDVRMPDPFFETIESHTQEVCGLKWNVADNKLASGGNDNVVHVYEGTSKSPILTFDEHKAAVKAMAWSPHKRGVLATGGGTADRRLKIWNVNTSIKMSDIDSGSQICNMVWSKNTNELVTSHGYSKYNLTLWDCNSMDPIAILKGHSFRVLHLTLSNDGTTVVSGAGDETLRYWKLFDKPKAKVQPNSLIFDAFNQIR", "test": "SMOR assay, yeast APC/C^Apc10-4A, Cdh1", "format": "binding, Saccharomyces cerevisiae", "method": "(§1) Yeast strains were derivatives of W303 and are listed in Supplementary Table 2. For APC/C purification, we used a strain carrying Cdc16-TAP and lacking Cdh1 (DOM1126); in most experiments, the strain also carried Apc1-GFP (NHY13). Yeast were grown in YPD media to OD600 = 0.8, collected and flash-frozen. Cells were lysed by bead beating in lysis buffer A (50 mM HEPES pH 7.5, 150 mM KCl, 10% glycerol, 0.2% Triton X-100, 63 µM B-glycerophosphate, 48 µM sodium fluoride, 1 µg ml^−1 pepstatin A, 1 µg ml^−1 leupeptin, 1 µg ml^−1 aprotinin, 1 mM PMSF, 1 mM DTT, 0.5 mM EDTA) and APC/C was purified using magnetic IgG beads. The beads were washed using wash buffer A (20 mM HEPES pH 7.5, 150 mM KCl, 10% Glycerol, 0.05% Triton X-100). After incubation with purified Cdh1 or Cdc20, the APC/C was cleaved off the beads with TEV protease in wash buffer A with 0.05% Tween-20 (for single-molecule studies) or 0.05% Triton X-100 (for ensemble assays such as ubiquitylation) and used immediately.\n(§2) For all SMOR experiments, 24 × 50 mm high precision glass coverslips (Bioscience Tools) and drilled microscope slides were passivated with a combination of PEG and PEG-biotin (coverslips) or PEG only (slides) following a previously published protocol for SiMPull[31]. Reaction chambers (~20 µl) were created using double-sided tape and epoxy. Protein was immobilized on the surface with 0.2 mg ml^−1 NeutrAvidin in buffer C (20 mM HEPES pH 7.5, 150 mM KCl, 10% glycerol, 0.05% Tween-20, 1 mM DTT). Excess NeutrAvidin was washed away and incubated with either biotin-conjugated mouse monoclonal anti-Strep-Tag II antibody (LSBio, Cat. No. LS-C203632-100) or biotin-conjugated rabbit polyclonal anti-GFP antibody (Rockland, Cat. No. 600-406-215) diluted in buffer C + BSA (0.1 mg ml^−1; Molecular Biology Grade Bovine Serum Albumin). Activator WD40 and activated APC/C (typically 50 µl containing about 65 ng APC/C, of which only a small fraction is immobilized on the glass) were immobilized using anti-Strep-Tag II, while APC/C alone was immobilized with anti-GFP. SMOR results were similar when performed in the buffer (wash buffer B) used in polarization anisotropy.\n(§3) To capture dynamic protein–protein interactions, dye-labeled substrate diluted in buffer C + BSA was added to the chamber containing immobilized proteins. Interactions were imaged by TIRF microscopy as described below. For optimal signal-to-noise ratio, peptide concentration was no greater than 1 nM. […]\n(§4) Microscopy was performed with a Nikon Eclipse TE2000-E with Perfect Focus with a 100 × 1.49na oil, Apo TIRF DIC N2, 0.13-0.2, WD0.12 objective. Movies were recorded using the Andor iXon DU-897E-CSO. […]"}, "APC/C^Apc10-4A, Cdc20": {"system": "APC/C^Apc10-4A, Cdc20", "sequence (P26309 whole entry)": "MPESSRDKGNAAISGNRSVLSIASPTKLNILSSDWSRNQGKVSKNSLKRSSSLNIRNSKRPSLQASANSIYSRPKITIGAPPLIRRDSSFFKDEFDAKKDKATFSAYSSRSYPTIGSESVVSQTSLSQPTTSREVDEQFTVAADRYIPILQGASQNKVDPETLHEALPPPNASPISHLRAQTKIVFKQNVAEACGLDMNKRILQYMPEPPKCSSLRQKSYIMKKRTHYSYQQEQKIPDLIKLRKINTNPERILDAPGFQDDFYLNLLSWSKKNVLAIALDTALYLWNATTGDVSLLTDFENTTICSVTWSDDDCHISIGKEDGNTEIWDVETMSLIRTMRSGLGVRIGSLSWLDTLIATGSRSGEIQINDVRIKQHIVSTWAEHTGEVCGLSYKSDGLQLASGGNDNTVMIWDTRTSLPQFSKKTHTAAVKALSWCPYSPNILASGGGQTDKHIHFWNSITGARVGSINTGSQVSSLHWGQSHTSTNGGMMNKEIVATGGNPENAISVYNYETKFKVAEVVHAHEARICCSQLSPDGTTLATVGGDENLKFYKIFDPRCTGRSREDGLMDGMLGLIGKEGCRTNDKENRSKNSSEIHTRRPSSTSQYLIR", "test": "SMOR assay, yeast APC/C^Apc10-4A, Cdc20", "format": "binding, Saccharomyces cerevisiae", "method": "as §1, §2, §3, §4"}, "APC/C^apo": {"target": "T1, APC/C^apo (Saccharomyces cerevisiae, UniProt P38042+P53068)", "T1 construct": "APC/C was purified from yeast cells; made in house; host or cells: S. cerevisiae W303 strain NHY13 (Cdc16-TAP, Apc1-GFP, cdh1 deleted)", "test": "SMOR assay, yeast APC/C^apo (no activator)", "format": "binding", "conditions": "Supplementary Table 1, single movie", "method": "as §1, with “immediately. […]” for “immediately.”\nas §4"}, "APC/C": {"system": "APC/C", "test": "APC/C ubiquitylation assay", "format": "biochemical, yeast", "conditions": "listed as Hsl1^Halo", "method": "APC/C ubiquitylation assays were performed as described previously. In short, APC/C was purified from yeast as described above using magnetic IgG beads and activated with a purified Cdh1 or Cdc20 activator. For all APC/C ubiquitylation assays, substrates were produced by in vitro translation with ^35S-Methionine (see Supplementary Table 5 for plasmids). Substrates were purified using magnetic IgG beads. E1 and E2 (Ubc4) were expressed in E. coli and purified as described previously[25],[42]. E2 was charged at 37 °C for 30 min (reaction contained 0.2 mg ml^−1 Uba1, 2 mg ml^−1 Ubc4, 2 mg ml^−1 methylated ubiquitin from Boston Biochem #Y-501, and 1 mM ATP). Charged E2 was added to a reaction containing activated APC/C and substrate. Reaction products were analyzed by SDS-PAGE and Phosphorimaging on a Typhoon 9400 Imager. […]"}, "[1]": {"conditions": "Supplementary Table 1, replicate 1 (movie listed first)"}, "[2]": {"conditions": "Supplementary Table 1, replicate 2 (movie listed second)"}, "[3]": {"conditions": "representative of two independent experiments, ± SE, ligand ≤1 nM, buffer C + BSA"}},
  "note": "Values joined by “and” are separate entries in the source; they are usually repeats but may differ in a detail not shown here. Equal entries are not always repeated. “Also recorded” adds a separate entry of the source.",
  "data": [
    {"molecule": "B1", "values": [
      {"measurement": "binding (in words)", "setting": "APC/C^Apc10-4A, Cdh1", "result": "This boost in affinity was not seen in the Apc10-4A mutant"},
      {"measurement": "Dwell Time", "setting": "APC/C^Apc10-4A, Cdh1; [1]", "result": "42.881 ± 2.489", "unit": "s"},
      {"measurement": "Dwell Time", "setting": "APC/C^Apc10-4A, Cdh1; [2]", "result": "75.919 ± 3.159", "unit": "s"},
      {"measurement": "mean dwell time", "setting": "APC/C^Apc10-4A, Cdh1; [3]", "result": "75.9 ± 3 s and 75.9 s"},
      {"measurement": "binding (in words)", "setting": "APC/C^Apc10-4A, Cdc20", "result": "the Apc10-4A mutations only slightly reduced Hsl1 dwell time with APC/C^Cdc20; also recorded: only slightly reduced by mutation of Apc10"},
      {"measurement": "Dwell Time", "setting": "APC/C^Apc10-4A, Cdc20; [1]", "result": "0.449 ± 0.014", "unit": "s"},
      {"measurement": "Dwell Time", "setting": "APC/C^Apc10-4A, Cdc20; [2]", "result": "0.372 ± 0.027", "unit": "s"},
      {"measurement": "mean dwell time", "setting": "APC/C^Apc10-4A, Cdc20; [3]", "result": 0.449, "unit": "s"},
      {"measurement": "Dwell Time (in words)", "setting": "APC/C^apo", "result": "no binding"},
      {"measurement": "ubiquitylation (in words)", "setting": "APC/C", "result": "HaloTag does not affect ubiquitylation or binding"}
    ]}
  ]
}
